Assay results: patent publication US20250002610A1 (Genmab, published 2025)

T1: human DR4 (Death Receptor 4), cell surface expressed on human tumor cell lines (human, UniProt O00220 24-468)
T1 construct: also called TNFRSF10A; TRAIL-R1
T1 sequence: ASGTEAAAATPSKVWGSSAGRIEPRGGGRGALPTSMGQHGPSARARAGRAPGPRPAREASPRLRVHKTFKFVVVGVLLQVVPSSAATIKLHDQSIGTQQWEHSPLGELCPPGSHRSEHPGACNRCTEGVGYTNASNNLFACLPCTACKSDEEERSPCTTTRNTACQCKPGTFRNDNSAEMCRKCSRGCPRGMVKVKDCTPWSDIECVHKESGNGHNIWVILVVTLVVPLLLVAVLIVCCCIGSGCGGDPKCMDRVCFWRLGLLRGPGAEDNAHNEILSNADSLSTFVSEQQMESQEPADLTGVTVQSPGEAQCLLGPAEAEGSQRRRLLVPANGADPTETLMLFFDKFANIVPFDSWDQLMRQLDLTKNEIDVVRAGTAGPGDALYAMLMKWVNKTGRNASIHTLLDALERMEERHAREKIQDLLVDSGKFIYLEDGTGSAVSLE

T2: cynomolgus monkey FAPα on Expi293F cells (cynomolgus monkey (Macaca fascicularis), UniProt Q12884 1-760 (human entry))
T2 sequence: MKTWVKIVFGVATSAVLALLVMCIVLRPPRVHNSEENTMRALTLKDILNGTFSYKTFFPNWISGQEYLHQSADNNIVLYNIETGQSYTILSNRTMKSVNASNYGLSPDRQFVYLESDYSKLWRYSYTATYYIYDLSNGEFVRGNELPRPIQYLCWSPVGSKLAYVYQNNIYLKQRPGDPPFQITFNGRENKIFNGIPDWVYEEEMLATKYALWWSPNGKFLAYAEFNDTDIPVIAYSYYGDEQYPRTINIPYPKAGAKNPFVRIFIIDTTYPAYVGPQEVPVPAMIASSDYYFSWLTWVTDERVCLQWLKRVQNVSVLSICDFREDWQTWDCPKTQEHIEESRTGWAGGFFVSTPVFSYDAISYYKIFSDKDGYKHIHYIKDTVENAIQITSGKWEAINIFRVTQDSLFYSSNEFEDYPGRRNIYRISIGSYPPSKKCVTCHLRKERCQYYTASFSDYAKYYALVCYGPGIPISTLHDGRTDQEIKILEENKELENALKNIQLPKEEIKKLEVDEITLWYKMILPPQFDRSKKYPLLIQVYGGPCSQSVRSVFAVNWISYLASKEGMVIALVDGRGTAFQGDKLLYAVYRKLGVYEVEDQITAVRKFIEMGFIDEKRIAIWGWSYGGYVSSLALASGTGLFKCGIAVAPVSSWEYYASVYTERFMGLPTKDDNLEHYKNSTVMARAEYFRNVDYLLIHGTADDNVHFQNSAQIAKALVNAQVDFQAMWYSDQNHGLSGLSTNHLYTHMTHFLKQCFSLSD

T3: pig FAPα on Expi293F cells (pig (Sus scrofa), UniProt A5D7B7 1-760 (bovine entry))
T3 chain: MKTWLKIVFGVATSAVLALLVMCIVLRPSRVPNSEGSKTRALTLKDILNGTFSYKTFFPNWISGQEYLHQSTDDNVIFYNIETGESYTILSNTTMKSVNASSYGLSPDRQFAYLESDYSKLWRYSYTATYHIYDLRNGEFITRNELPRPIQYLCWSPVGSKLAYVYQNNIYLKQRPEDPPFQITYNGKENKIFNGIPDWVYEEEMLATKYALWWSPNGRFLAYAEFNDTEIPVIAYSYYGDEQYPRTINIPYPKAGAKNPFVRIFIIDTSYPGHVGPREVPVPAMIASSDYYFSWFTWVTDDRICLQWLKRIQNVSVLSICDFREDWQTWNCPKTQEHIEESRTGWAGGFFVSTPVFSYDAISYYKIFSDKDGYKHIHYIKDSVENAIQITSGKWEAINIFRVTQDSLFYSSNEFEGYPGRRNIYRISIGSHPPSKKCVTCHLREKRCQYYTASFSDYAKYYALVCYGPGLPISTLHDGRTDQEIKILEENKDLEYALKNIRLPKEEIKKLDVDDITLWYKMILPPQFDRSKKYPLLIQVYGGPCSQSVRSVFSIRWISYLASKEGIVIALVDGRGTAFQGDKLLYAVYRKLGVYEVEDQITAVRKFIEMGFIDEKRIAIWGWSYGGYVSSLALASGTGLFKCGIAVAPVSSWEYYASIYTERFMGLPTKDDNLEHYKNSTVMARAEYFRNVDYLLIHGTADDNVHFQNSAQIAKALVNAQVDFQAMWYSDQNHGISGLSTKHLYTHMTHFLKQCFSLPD


How the values were obtained:
[1] = target: T1, human DR4 (Death Receptor 4), cell …; assay: flow cytometry, PANC-1 cells, n = 2
[2] = target: T2, cynomolgus monkey FAPα on Expi293F cells; assay: flow cytometry, Expi293F cells expressing cynomolgus monkey FAPα, n = 1
Protocol: (§1) Binding of BisG1-FAPα-FERL/DR4-FERR, BisG1-FAPα-FEAL/b12-FEAR and IgG1-FAPα-FERL to FAPα of species commonly used for nonclinical toxicology studies was assessed by flow cytometry using Expi293F cells transiently expressing FAPα from different animal species. IgG1-b12 was included as negative control.
(§2) Expi293F cells expressing recombinant FAPα from various species (human, cynomolgus monkey, dog, pig, rat or mouse) were seeded (20,000 cells/well) in 96-Well round bottom plates (Greiner Bio-one, Cat #650101). Antibody dilutions were prepared using FACS buffer, consisting of PBS (Capricorn Scientific, Cat #PBS-10XA, diluted to 1×PBS in distilled water)+1% BSA (Roche, Cat #10735086001)+0.02% Sodium Azide (Bio-World, Cat #41920044-3). Plates were centrifuged, supernatant was removed, and cells were resuspended in 100 μL of antibody dilutions (concentration range 30-0.00017 μg/mL with three-fold serial dilutions using FACS buffer) of BisG1-FAPα-FERL/DR4-FERR, BisG1-FAPα-FEAL/b12-FEAR, IgG1-FAPα-FERL and IgG1-b12 and incubated for 30 min at 4° C. […] After 30 min incubation at 4° C., cells were washed with FACS buffer and resuspended in FACS buffer supplemented with TO-PRO-3 Iodide viability marker (Invitrogen, Cat #T3605, diluted 1:4,000). Antibody binding to viable cells (gMFI of PE on TO-PRO-3 negative cells) was analyzed by flow cytometry on a FACS Celesta and FACS_Diva software (first two experiments) or iQue® 3 and FlowJo software (last experiment). gMFI was determined and visualized using GraphPad Prism. Binding curves were analyzed using nonlinear regression analysis. The concentration (pg/mL) at which 50% of the maximal effect was observed (EC₅₀) was derived from the fitted curves.

[3] = target: T3, pig FAPα on Expi293F cells; assay: flow cytometry on Expi293F cells transiently expressing pig FAPα, gMFI PE
Protocol: as §1, §2

Row | Binder | EC50 [1] [µg/mL] | EC50 [2] [µg/mL] | binding result [3] | EC50 (read off the curve) [3] [µg/mL]
1 | IgG1-DR4-FERR (antibody, V domains shown, Bivalent monoclonal IgG1 lambda) VH: QVQLQESGPGLVKPSGTLSLTCAVSGGSISSYSWWSWIRQPPGKGLEWIGELYHSGSTNYNPSLKSRVTISVDKSKNQFSLKLRSVTAADTAVYYCVRGVATIDYWGQGTLVTVSS VL: QSALTQPPSASGSPGQSVTISCTGTSSDVGGYNFVSWYQQDPGKAPKLLIYEVTKRPSGVPDRFSGSKSGNTASLTVSGLQAEDEADYYCSSYAGSNNVMFGGGTKLTVLG | 0.4 |  |  | 
2 | BisG1-FAPα-FEAL/b12-FEAR (bispecific antibody, human IgG1, kappa, Fab-arm exchange of IgG1-FAPα-FEAL and IgG1-b12-FEAR) heavy 1: EVQLLESGGGLVQPGGSPRLSCEASGFTFSSYALSWVRQAPGKGLEWVSAISGSGGGRYYADSVKGRFTISRDNSKNTLFLQMNSLRAEDTAVYYCAKEGYSSSGTYWDHWGQGTLVTVSSASTKGPSVFPLAPSSKSTSGGTAALGCLVKDYFPEPVTVSWNSGALTSGVHTFPAVLQSSGLYSLSSVVTVPSSSLGTQTYICNVNHKPSNTKVDKRVEPKSCDKTHTCPPCPAPEFEGGPSVFLFPPKPKDTLMISRTPEVTCVVVAVSHEDPEVKFNWYVDGVEVHNAKTKPREEQYNSTYRVVSVLTVLHQDWLNGKEYKCKVSNKALPAPIEKTISKAKGQPREPQVYTLPPSREEMTKNQVSLTCLVKGFYPSDIAVEWESNGQPENNYKTTPPVLDSDGSFLLYSKLTVDKSRWQQGNVFSCSVMHEALHNHYTQKSLSLSPG light 1: AIQMTQSPSSVSASVGDRVTITCRASQGVSSWLAWYQQKPGRAPKLLIYVASTLQSGVPSRFSGSGSGTDFTLTINSLQPEDFATYYCQQANSFPPTFGQGTRLEMKRTVAAPSVFIFPPSDEQLKSGTASVVCLLNNFYPREAKVQWKVDNALQSGNSQESVTEQDSKDSTYSLSSTLTLSKADYEKHKVYACEVTHQGLSSPVTKSFNRGEC heavy 2: QVQLVQSGAEVKKPGASVKVSCQASGYRFSNFVIHWVRQAPGQRFEWMGWINPYNGNKEFSAKFQDRVTFTADTSANTAYMELRSLRSADTAVYYCARVGPYSWDDSPQDNYYMDVWGKGTTVIVSSASTKGPSVFPLAPSSKSTSGGTAALGCLVKDYFPEPVTVSWNSGALTSGVHTFPAVLQSSGLYSLSSVVTVPSSSLGTQTYICNVNHKPSNTKVDKRVEPKSCDKTHTCPPCPAPEFEGGPSVFLFPPKPKDTLMISRTPEVTCVVVAVSHEDPEVKFNWYVDGVEVHNAKTKPREEQYNSTYRVVSVLTVLHQDWLNGKEYKCKVSNKALPAPIEKTISKAKGQPREPQVYTLPPSREEMTKNQVSLTCLVKGFYPSDIAVEWESNGQPENNYKTTPPVLDSDGSFFLYSRLTVDKSRWQQGNVFSCSVMHEALHNHYTQKSLSLSPG light 2: EIVLTQSPGTLSLSPGERATFSCRSSHSIRSRRVAWYQHKPGQAPRLVIHGVSNRASGISDRFSGSGSGTDFTLTITRVEPEDFALYYCQVYGASSYTFGQGTKLERKRTVAAPSVFIFPPSDEQLKSGTASVVCLLNNFYPREAKVQWKVDNALQSGNSQESVTEQDSKDSTYSLSSTLTLSKADYEKHKVYACEVTHQGLSSPVTKSFNRGEC |  | 0.05 | binds | 
3 | IgG1-FAPα-FERL (antibody, Bivalent monoclonal IgG1 kappa) heavy: EVQLLESGGGLVQPGGSPRLSCEASGFTFSSYALSWVRQAPGKGLEWVSAISGSGGGRYYADSVKGRFTISRDNSKNTLFLQMNSLRAEDTAVYYCAKEGYSSSGTYWDHWGQGTLVTVSSASTKGPSVFPLAPSSKSTSGGTAALGCLVKDYFPEPVTVSWNSGALTSGVHTFPAVLQSSGLYSLSSVVTVPSSSLGTQTYICNVNHKPSNTKVDKRVEPKSCDKTHTCPPCPAPEFERGPSVFLFPPKPKDTLMISRTPEVTCVVVDVSHEDPEVKFNWYVDGVEVHNAKTKPREEQYNSTYRVVSVLTVLHQDWLNGKEYKCKVSNKALPAPIEKTISKAKGQPREPQVYTLPPSREEMTKNQVSLTCLVKGFYPSDIAVEWESNGQPENNYKTTPPVLDSDGSFLLYSKLTVDKSRWQQGNVFSCSVMHEALHNHYTQKSLSLSPG light: AIQMTQSPSSVSASVGDRVTITCRASQGVSSWLAWYQQKPGRAPKLLIYVASTLQSGVPSRFSGSGSGTDFTLTINSLQPEDFATYYCQQANSFPPTFGQGTRLEMKRTVAAPSVFIFPPSDEQLKSGTASVVCLLNNFYPREAKVQWKVDNALQSGNSQESVTEQDSKDSTYSLSSTLTLSKADYEKHKVYACEVTHQGLSSPVTKSFNRGEC |  | 0.03 |  | ~0.3
